# Measurements from the supplement of paper PMC9112550, “Optimization of the antimicrobial peptide Bac7 by deep mutational scanning” (BMC Biology, 2022).
# Test system: Escherichia coli TOP10
# Assay: shrunken log2 fold change of peptide-encoding DNA abundance (4.5 h post-induction vs induction); higher = less antimicrobial activity (less host growth inhibition)
# Conditions: time post-induction: 4.5 h; library: site-saturation at positions 5, 18, 19, 20
# 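Note: peptides expressed intracellularly from a pBAD plasmid library in pooled LB shake-flask culture, induced with 0.3% L-arabinose, DNA abundance read by NGS, three biological replicates, DESeq2 with apeglm shrinkage.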
row,Sequence,shrunken log2 fold change
1,RRIRIRPPRLPRPRPRPVMSPRP,-0.0169
2,RRIRLRPPRLPRPRPRPYGKPRP,-0.242
3,RRIRHRPPRLPRPRPRPDSHPRP,-0.0191
4,RRIRHRPPRLPRPRPRPVVHPRP,-0.115
5,RRIRTRPPRLPRPRPRPIHHPRP,-0.124
6,RRIRWRPPRLPRPRPRPWNLPRP,-0.0421
7,RRIRDRPPRLPRPRPRPCMWPRP,0.569
8,RRIRMRPPRLPRPRPRPHWQPRP,0.161
9,RRIRIRPPRLPRPRPRPLDHPRP,-0.333
10,RRIRTRPPRLPRPRPRPDHLPRP,0.0101
11,RRIRHRPPRLPRPRPRPVPMPRP,0.0504
12,RRIRNRPPRLPRPRPRPCHSPRP,-0.539
13,RRIRWRPPRLPRPRPRPYCIPRP,-0.179
14,RRIRFRPPRLPRPRPRPIYKPRP,-0.836
15,RRIRARPPRLPRPRPRPIVEPRP,0.207
16,RRIRVRPPRLPRPRPRPIISPRP,-0.418
17,RRIRTRPPRLPRPRPRPMYWPRP,-0.131
18,RRIRDRPPRLPRPRPRPEMWPRP,2.04
19,RRIRSRPPRLPRPRPRPYGEPRP,-0.256
20,RRIRMRPPRLPRPRPRPFDHPRP,-0.00544
21,RRIRNRPPRLPRPRPRPRRNPRP,-0.03
22,RRIRDRPPRLPRPRPRPTRSPRP,0.877
23,RRIRFRPPRLPRPRPRPPQFPRP,0.0547
24,RRIRVRPPRLPRPRPRPDALPRP,-0.0285
25,RRIRGRPPRLPRPRPRPTSMPRP,0.643

row,Sequence,shrunken log2 fold change
1,RRIRDRPPRLPRPRPRPFYWPRP,-0.0675
2,RRIRIRPPRLPRPRPRPFEGPRP,-0.221
3,RRIRLRPPRLPRPRPRPKWPPRP,0.279
4,RRIRSRPPRLPRPRPRPRLFPRP,0.376
5,RRIRQRPPRLPRPRPRPLPDPRP,0.0466
6,RRIRFRPPRLPRPRPRPQTVPRP,-0.211
7,RRIRQRPPRLPRPRPRPMQVPRP,-0.0356
8,RRIRDRPPRLPRPRPRPAQKPRP,0.0225
9,RRIRWRPPRLPRPRPRPFSLPRP,0.141
10,RRIRWRPPRLPRPRPRPKWFPRP,0.257
11,RRIRHRPPRLPRPRPRPNQAPRP,0.033
12,RRIRCRPPRLPRPRPRPNNPPRP,-0.681
13,RRIRFRPPRLPRPRPRPYQIPRP,-0.471
14,RRIRNRPPRLPRPRPRPCWGPRP,-0.315
15,RRIRARPPRLPRPRPRPVQGPRP,0.47
16,RRIRGRPPRLPRPRPRPWTMPRP,0.033
17,RRIRYRPPRLPRPRPRPLMHPRP,-1.02
18,RRIRTRPPRLPRPRPRPDATPRP,0.823
19,RRIRLRPPRLPRPRPRPELWPRP,0.626
20,RRIRNRPPRLPRPRPRPGGNPRP,-0.0331
21,RRIRYRPPRLPRPRPRPSVCPRP,-0.769
22,RRIRVRPPRLPRPRPRPTLDPRP,0.125
23,RRIRFRPPRLPRPRPRPAQIPRP,-0.00279
24,RRIRCRPPRLPRPRPRPGKLPRP,-0.111
25,RRIRWRPPRLPRPRPRPLMNPRP,-0.0906

row,Sequence,shrunken log2 fold change
1,RRIRNRPPRLPRPRPRPICSPRP,-0.0669
2,RRIRPRPPRLPRPRPRPLKPPRP,0.0408
3,RRIRGRPPRLPRPRPRPAITPRP,0.721
4,RRIRTRPPRLPRPRPRPWRQPRP,0.0481
5,RRIRCRPPRLPRPRPRPIEFPRP,0.191
6,RRIRWRPPRLPRPRPRPRAMPRP,0.363
7,RRIRLRPPRLPRPRPRPYWLPRP,-0.54
8,RRIRKRPPRLPRPRPRPFVTPRP,-0.0435
9,RRIRLRPPRLPRPRPRPNTAPRP,-0.248
10,RRIRIRPPRLPRPRPRPNHIPRP,-1.16
11,RRIRFRPPRLPRPRPRPYYCPRP,-0.74
12,RRIRHRPPRLPRPRPRPMAVPRP,0.159
13,RRIRYRPPRLPRPRPRPHEPPRP,-0.133
14,RRIRRRPPRLPRPRPRPPMVPRP,0.285
15,RRIRIRPPRLPRPRPRPCCGPRP,-0.252
16,RRIRTRPPRLPRPRPRPETWPRP,-0.0622
17,RRIRERPPRLPRPRPRPAIHPRP,0.125
18,RRIRKRPPRLPRPRPRPSFRPRP,-0.294
19,RRIRKRPPRLPRPRPRPPLSPRP,0.832
20,RRIRRRPPRLPRPRPRPVLCPRP,0.569
21,RRIRARPPRLPRPRPRPSPTPRP,0.328
22,RRIRFRPPRLPRPRPRPQPAPRP,0.652
23,RRIRVRPPRLPRPRPRPDHSPRP,-0.252
24,RRIRDRPPRLPRPRPRPAFCPRP,0.111
25,RRIRIRPPRLPRPRPRPEQKPRP,2.45

row,Sequence,shrunken log2 fold change
1,RRIRRRPPRLPRPRPRPFWYPRP,-0.192
2,RRIRHRPPRLPRPRPRPPNRPRP,-0.0966
3,RRIRCRPPRLPRPRPRPNVTPRP,0.632
4,RRIRDRPPRLPRPRPRPPWGPRP,0.344
5,RRIRTRPPRLPRPRPRPWIVPRP,-0.0452
6,RRIRFRPPRLPRPRPRPSNDPRP,-0.112
7,RRIRARPPRLPRPRPRPWRSPRP,0.143
8,RRIRVRPPRLPRPRPRPKEFPRP,0.0951
9,RRIRDRPPRLPRPRPRPFDHPRP,0.0299
10,RRIRTRPPRLPRPRPRPIHWPRP,0.0444
11,RRIRMRPPRLPRPRPRPGCNPRP,0.00293
12,RRIRTRPPRLPRPRPRPFIKPRP,-0.57
13,RRIRRRPPRLPRPRPRPVWEPRP,0.00461
14,RRIRTRPPRLPRPRPRPHFIPRP,-0.321
15,RRIRHRPPRLPRPRPRPVHCPRP,-0.159
16,RRIRTRPPRLPRPRPRPTNSPRP,-0.334
17,RRIRWRPPRLPRPRPRPCFHPRP,-0.247
18,RRIRYRPPRLPRPRPRPCHCPRP,-0.0269
19,RRIRMRPPRLPRPRPRPGFHPRP,-0.039
20,RRIRLRPPRLPRPRPRPCQGPRP,0.00157
21,RRIRFRPPRLPRPRPRPYLLPRP,-1.11
22,RRIRMRPPRLPRPRPRPDFNPRP,0.0763
23,RRIRARPPRLPRPRPRPDGTPRP,0.288
24,RRIRYRPPRLPRPRPRPGHVPRP,-0.59
25,RRIRFRPPRLPRPRPRPWWQPRP,-0.0583

row,Sequence,shrunken log2 fold change
1,RRIRVRPPRLPRPRPRPRQPPRP,0.284
2,RRIRHRPPRLPRPRPRPMVNPRP,-0.469
3,RRIRPRPPRLPRPRPRPKGYPRP,-0.13
4,RRIRIRPPRLPRPRPRPEFNPRP,-0.0922
5,RRIRRRPPRLPRPRPRPLSVPRP,0.298
6,RRIRIRPPRLPRPRPRPISGPRP,-0.0415
7,RRIRVRPPRLPRPRPRPCEGPRP,-0.0149
8,RRIRGRPPRLPRPRPRPRNYPRP,0.00522
9,RRIRERPPRLPRPRPRPAHAPRP,0.117
10,RRIRCRPPRLPRPRPRPVWEPRP,0.176
11,RRIRTRPPRLPRPRPRPASTPRP,-0.0927
12,RRIRHRPPRLPRPRPRPLANPRP,-0.263
13,RRIRMRPPRLPRPRPRPVEHPRP,-0.00663
14,RRIRHRPPRLPRPRPRPGISPRP,-0.315
15,RRIRQRPPRLPRPRPRPIGKPRP,0.0819
16,RRIRTRPPRLPRPRPRPIMKPRP,-0.253
17,RRIRFRPPRLPRPRPRPDSYPRP,-0.236
18,RRIRCRPPRLPRPRPRPLESPRP,0.0242
19,RRIRQRPPRLPRPRPRPQMFPRP,0.00489
20,RRIRLRPPRLPRPRPRPVKWPRP,0.215
21,RRIRKRPPRLPRPRPRPEWPPRP,0.273
22,RRIRDRPPRLPRPRPRPFKLPRP,0.0184
23,RRIRPRPPRLPRPRPRPRSVPRP,0.0746
24,RRIRYRPPRLPRPRPRPHVSPRP,0.0324
25,RRIRMRPPRLPRPRPRPNTQPRP,0.0014

row,Sequence,shrunken log2 fold change
1,RRIRGRPPRLPRPRPRPYHIPRP,0.158
2,RRIRARPPRLPRPRPRPTVCPRP,0.505
3,RRIRLRPPRLPRPRPRPRAGPRP,0.557
4,RRIRWRPPRLPRPRPRPEAWPRP,1.02
5,RRIRQRPPRLPRPRPRPNYDPRP,-0.257
6,RRIRLRPPRLPRPRPRPPSHPRP,0.0809
7,RRIRARPPRLPRPRPRPVRWPRP,0.88
8,RRIRCRPPRLPRPRPRPGTIPRP,0.00164
9,RRIRIRPPRLPRPRPRPGHMPRP,0.0184
10,RRIRDRPPRLPRPRPRPIAHPRP,0.41
11,RRIRTRPPRLPRPRPRPRECPRP,0.00425
12,RRIRNRPPRLPRPRPRPMIMPRP,-1.96
13,RRIRCRPPRLPRPRPRPHQDPRP,-0.365
14,RRIRFRPPRLPRPRPRPQRYPRP,-0.139
15,RRIRFRPPRLPRPRPRPYCMPRP,-0.929
16,RRIRARPPRLPRPRPRPPVPPRP,0.638
17,RRIRPRPPRLPRPRPRPHFMPRP,-0.231
18,RRIRTRPPRLPRPRPRPAYDPRP,-0.251
19,RRIRPRPPRLPRPRPRPEIQPRP,0.07
20,RRIRERPPRLPRPRPRPLWIPRP,-0.558
21,RRIRYRPPRLPRPRPRPFEIPRP,-0.17
22,RRIRERPPRLPRPRPRPTCHPRP,-0.186
23,RRIRPRPPRLPRPRPRPRKHPRP,0.0952
24,RRIRRRPPRLPRPRPRPKGWPRP,0.439
25,RRIRQRPPRLPRPRPRPRACPRP,0.344
